# Data reported in publication doi:10.1101/2023.04.28.538712 (bioRxiv, 2023).
# Substitutions are numbered along the chain they refer to.
# B1: mNb6 humanised variant, AbNatiV Enhanced sampling (+buried) (VHH)
# VHH: EVQLVESGGGLVQPGGSLRLSCAASGYIFGRNAMGWVRQAPGKGREWVSGITRRGSITYYADSVKGRFTISRDNAKNTVYLQMNSLRPEDTAVYYCAADPASPAYGDYWGQGTQVTVSS
# notes: Parent: mNb6 WT
# B2: mNb6 humanised variant, AbNatiV Exhaustive sampling (+buried) (VHH)
# VHH: B1 VHH with R45L, S49A, N84D, Q114L
# notes: Parent: mNb6 WT; also called mNb6 Exhausted Sampling + buried; Exhausted +buried
# B3: mNb6 humanised variant, AbNatiV Enhanced sampling (VHH)
# VHH: B1 VHH with V37Y, G44E, W47L, S49A, Y80F
# notes: Parent: mNb6 WT; also called mNb6 Enhanced
# B4: mNb6 humanised variant, AbNatiV Exhaustive sampling (VHH)
# VHH: B1 VHH with V37Y, R45L, S49A, Y80F, N84D, Q114L
# notes: Parent: mNb6 WT; also called mNb6 Exhaustive
# B5: mNb6 humanised variant, Frequency and Structure-based humanisation (Llamanade) (VHH)
# VHH: B1 VHH with E1Q, R45L, S49A, V79L, P88A, A98R, Q114L
# notes: Parent: mNb6 WT; also called Frequency & structure-based; Frequency and Structure-based variant
# B6: Nb24 WT nanobody (VHH)
# VHH: QVQLQESGGGSVQAGGSLRLSCAASGYTDSRYCMAWFRQAPGKEREWVARINSGRDITYYADSVKGRFTFSQDNAKNTVYLQMDSLEPEDTATYYCATDIPLRCRDIVAKGGDGFRYWGQGTQVTVSS
# notes: source: E. coli Shuffle LysY, secreted to the medium, purified (His Mag Sepharose Excel beads, SEC Superdex 75)
# B7: Nb24 humanised variant, AbNatiV Enhanced sampling (+buried) (VHH)
# VHH: B6 VHH with Q1E, Q5L, S11L, A14P, F70V, Q72R, A75S, E87R, T93V
# notes: Parent: Nb24 WT; source: E. coli Shuffle LysY, secreted to the medium, purified (His Mag Sepharose Excel beads, SEC Superdex 75)
# B8: Nb24 humanised variant, AbNatiV Exhaustive sampling (VHH)
# VHH: B6 VHH with Q1E, Q5V, S11L, A14P, E44G, R45L, Q72R, E87R, T93V
# notes: Parent: Nb24 WT; also called Nb24 Exhaustive; source: E. coli Shuffle LysY, secreted to the medium, purified (His Mag Sepharose Excel beads, SEC Superdex 75)
# B9: Nb24 humanised variant, AbNatiV Enhanced sampling (VHH)
# VHH: B6 VHH with Q1E, Q5L, S11L, A14P, Q72R, A75S, E87R, T93V
# notes: Parent: Nb24 WT; also called Nb24 Enhanced; source: E. coli Shuffle LysY, secreted to the medium, purified (His Mag Sepharose Excel beads, SEC Superdex 75)
# B10: Nb24 humanised variant, AbNatiV Exhaustive sampling (+buried) (VHH)
# VHH: EVQLVESGGGLVQPGGSLRLSCAASGYTDSRYCMAWFRQAPGKGLEWVARINSGRDITYYADSVKGRFTISRDNAKNTVYLQMDSLKPEDTAVYYCATDIPLRCRDIVAKGGDGFRYWGQGTLVTVSS
# notes: Parent: Nb24 WT; also called Exhausted +buried; source: E. coli Shuffle LysY, secreted to the medium, purified (His Mag Sepharose Excel beads, SEC Superdex 75)
# B11: Nb24 humanised variant, Frequency and Structure-based humanisation (Llamanade) (VHH)
# VHH: B10 VHH with E1Q, V79L, D84N, K87R, P88A, T98R
# notes: Parent: Nb24 WT; also called Frequency & structure-based; Frequency and Structure-based humanised variant; source: E. coli Shuffle LysY, secreted to the medium, purified (His Mag Sepharose Excel beads, SEC Superdex 75)
# Columns and labels:
# [1] = biological target: T1, SARS-CoV-2 Spike receptor-binding domain (RBD), biotinylated (SARS-CoV-2, strain ; …, UniProt P0DTC2); assay: BLI; details: both partners purified
# T1 construct: also called SARS-CoV-2 RBD; SarS-CoV-2 RBD
# [2] = biological target: T2, β2-microglobulin, biotinylated (Homo sapiens, UniProt P61769); assay: BLI; Octet-BLI K2; SA sensors loaded with 50 nM biotinylated β2-microglobulin; Nb24 variants in solution (25-400 nM in Fig. 5C); PBS + 0.05% Tween-20, 30°C, 1000 rpm; global fit, 1:1 partial dissociation binding model; KD mean of 3 independent experiments; details: both partners purified
# T2 construct: β2-microglobulin, human; Surmise: such E. coli constructs are usually the mature protein with an added first methionine; also called human β2-microglobulin; recombinant β2-microglobulin
# T2 sequence (P61769 21-119): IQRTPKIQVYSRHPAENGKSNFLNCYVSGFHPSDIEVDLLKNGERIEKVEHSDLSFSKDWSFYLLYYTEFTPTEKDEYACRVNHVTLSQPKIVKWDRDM
binder,measurement,setting,value
B1,binding result,[1],binds
B2,binding result,[1],binds
B3,Kd,[1],0.86 nM
B4,Kd,[1],15 nM
B5,binding result,[1],no binding (tested: 500 nM)
B6,Kd,[2],79 nM
B7,binding result,[2],binds
B8,Kd,[2],75 nM
B9,Kd,[2],68 nM
B10,binding result,[2],binds
B11,binding result,[2],binds
